In PMC3025492:

Target: GST-capicua (1-450) (Homo sapiens, UniProt Q96RK0-2 1-450)
Test: EMSA

B1: CRE probe (ETV4/ETV5 promoter CIC-responsive element) (dsDNA)
DNA 1: GTCGCGTTTTTTATGAATGAAAAACGTCCTTACATTCATT
DNA 2: AATGAATGTAAGGACGTTTTTCATTCATAAAAAACGCGAC
B1: binds.
